In patent US20200223889A1 (Novo Nordisk, published 2020):
Positions of bridges follow the written chain, without caps; N, C: chain ends. Non-standard residues stand in square brackets, D forms with d. Phe(3,4-(OMe)2) = COc1ccc(C[C@H](N)C(=O)O)cc1OC; Phe(3,4-Cl2) = N[C@@H](Cc1ccc(Cl)c(Cl)c1)C(=O)O; Phe(4-CN) = N#Cc1ccc(C[C@H](N)C(=O)O)cc1; 2Nal = N[C@@H](Cc1ccc2ccccc2c1)C(=O)O; Hyp = O=C(O)[C@@H]1C[C@@H](O)CN1; Cit = NC(=O)NCCC[C@H](N)C(=O)O; Pip = O=C(O)[C@@H]1CCCCN1; Thz = O=C(O)[C@@H]1CSCN1; Aze = O=C(O)[C@@H]1CCN1; Sar = CNCC(=O)O

How the values were obtained:
[1] = target: human melanocortin 1 receptor (human, UniProt Q01726 1-317); test: cell-based or functional assay
[2] = target: T1, human melanocortin 4 receptor (human, UniProt P32245 1-332); test: cell-based or functional assay
[3] = target: T1, human melanocortin 4 receptor; test: competition with 125-NDP-α-MSH, BHK human MC4R membranes
How it was run: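 Competition binding used membranes from BHK cells stably expressing human MC4R with ¹²⁵I-NDP-α-MSH (apx. […] final), compound at 1 μM–0.001 nM. Incubation was 2 h at 25 °C in HEPES pH 7.0 buffer with CaCl₂, MgSO₄, EGTA, Tween 20 and 0.1% HSA or ovalbumin. Filter-bound radioactivity was fitted by non-linear regression.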

Sequence of human melanocortin 1 receptor (Q01726 whole entry): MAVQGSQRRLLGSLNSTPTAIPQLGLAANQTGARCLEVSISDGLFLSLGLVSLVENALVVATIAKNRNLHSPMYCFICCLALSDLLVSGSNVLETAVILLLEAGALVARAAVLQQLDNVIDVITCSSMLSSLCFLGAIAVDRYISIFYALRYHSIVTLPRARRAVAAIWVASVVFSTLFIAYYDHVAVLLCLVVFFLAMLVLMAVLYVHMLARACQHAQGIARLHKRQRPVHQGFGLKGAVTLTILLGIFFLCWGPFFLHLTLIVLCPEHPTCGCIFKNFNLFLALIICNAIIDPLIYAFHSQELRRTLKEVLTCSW
T1 sequence (P32245 whole entry): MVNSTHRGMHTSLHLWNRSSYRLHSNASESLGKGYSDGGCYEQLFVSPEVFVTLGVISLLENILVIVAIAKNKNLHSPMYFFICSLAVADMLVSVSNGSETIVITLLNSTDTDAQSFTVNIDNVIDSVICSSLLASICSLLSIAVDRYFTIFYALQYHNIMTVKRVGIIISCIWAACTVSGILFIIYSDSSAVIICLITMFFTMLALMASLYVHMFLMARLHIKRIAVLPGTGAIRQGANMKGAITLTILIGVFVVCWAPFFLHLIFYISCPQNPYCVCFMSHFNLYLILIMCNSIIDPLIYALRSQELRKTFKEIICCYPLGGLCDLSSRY

Row | Binder | MC1R cAMP EC50 [1] | MC4R cAMP EC50 [2] | Ki [3]
1 | cyclo(CAH[dF]R[2Nal]CAKKKW) (disulfide 1-7; SMILES C[C@@H]1NC(=O)[C@@H]2CSSC[C@H](NC(=O)[C@H](Cc3ccc4ccccc4c3)NC(=O)[C@H](CCCNC(=N)N)NC(=O)[C@@H](Cc3ccccc3)NC(=O)[C@H](Cc3c[nH]cn3)NC1=O)C(=O)N[C@@H](C)C(=O)N[C@@H](CCCCN)C(=O)N[C@@H](CCCCN)C(=O)N[C@@H](CCCCN)C(=O)N[C@@H](Cc1c[nH]c3ccccc13)C(=O)N2, also called c[c[Cys-Ala-His-D-Phe-Arg-2-Nal-Cys]-Ala-Lys-Lys-Lys-Trp]) [Chem. 79] | 1.16 nM | 0.02 nM | 0.03 nM
2 | cyclo(C[Sar]H[dF]HWCAKKKW) (disulfide 1-7; SMILES C[C@@H]1NC(=O)[C@@H]2CSSC[C@H](NC(=O)[C@H](Cc3c[nH]c4ccccc34)NC(=O)[C@H](CCCCN)NC(=O)[C@H](CCCCN)NC(=O)[C@H](CCCCN)NC1=O)C(=O)N(C)CC(=O)N[C@@H](Cc1c[nH]cn1)C(=O)N[C@H](Cc1ccccc1)C(=O)N[C@@H](Cc1c[nH]cn1)C(=O)N[C@@H](Cc1c[nH]c3ccccc13)C(=O)N2, also called c[c[Cys-Sar-His-D-Phe-His-Trp-Cys]-Ala-Lys-Lys-Lys-Trp]) [Chem. 73] | > 50 nM | 1.26 nM | 0.3 nM
3 | cyclo(CH[dF]RWRCH[dF]RWR) (disulfide 1-7; SMILES N=C(N)NCCC[C@@H]1NC(=O)[C@H](Cc2c[nH]c3ccccc23)NC(=O)[C@H](CCCNC(=N)N)NC(=O)[C@@H](Cc2ccccc2)NC(=O)[C@H](Cc2c[nH]cn2)NC(=O)[C@@H]2CSSC[C@H](NC1=O)C(=O)N[C@@H](Cc1c[nH]cn1)C(=O)N[C@H](Cc1ccccc1)C(=O)N[C@@H](CCCNC(=N)N)C(=O)N[C@@H](Cc1c[nH]c3ccccc13)C(=O)N[C@@H](CCCNC(=N)N)C(=O)N2, also called c[c[Cys-His-D-Phe-Arg-Trp-Arg-Cys]-His-D-Phe-Arg-Trp-Arg]) [Chem. 68] | 4.87 nM | 4.35 nM | 10.4 nM
4 | cyclo(C[Aze]H[dF]HWCAKKKW) (disulfide 1-7; SMILES C[C@@H]1NC(=O)[C@@H]2CSSC[C@H](NC(=O)[C@H](Cc3c[nH]c4ccccc34)NC(=O)[C@H](CCCCN)NC(=O)[C@H](CCCCN)NC(=O)[C@H](CCCCN)NC1=O)C(=O)N1CC[C@H]1C(=O)N[C@@H](Cc1c[nH]cn1)C(=O)N[C@H](Cc1ccccc1)C(=O)N[C@@H](Cc1c[nH]cn1)C(=O)N[C@@H](Cc1c[nH]c3ccccc13)C(=O)N2, also called c[c[Cys-AZE-His-D-Phe-His-Trp-Cys]-Ala-Lys-Lys-Lys-Trp]) [Chem. 82] | 94.3 nM | 0.53 nM | 0.07 nM
5 | cyclo(CAH[dF]R[Phe(3,4-Cl2)]CAKKKW) (disulfide 1-7; SMILES C[C@@H]1NC(=O)[C@@H]2CSSC[C@H](NC(=O)[C@H](Cc3ccc(Cl)c(Cl)c3)NC(=O)[C@H](CCCNC(=N)N)NC(=O)[C@@H](Cc3ccccc3)NC(=O)[C@H](Cc3c[nH]cn3)NC1=O)C(=O)N[C@@H](C)C(=O)N[C@@H](CCCCN)C(=O)N[C@@H](CCCCN)C(=O)N[C@@H](CCCCN)C(=O)N[C@@H](Cc1c[nH]c3ccccc13)C(=O)N2, also called c[c[Cys-Ala-His-D-Phe-Arg-3,4-DiCl-Phe-Cys]-Ala-Lys-Lys-Lys-Trp]) [Chem. 66] | 0.22 nM | 0.01 nM | 0.03 nM
6 | cyclo(C[Thz]H[dF]HWC[Thz]H[dF]HW) (disulfide 1-7; SMILES O=C1N[C@H]2CSSC[C@H](NC(=O)[C@H](Cc3c[nH]c4ccccc34)NC(=O)[C@H](Cc3c[nH]cn3)NC(=O)[C@@H](Cc3ccccc3)NC(=O)[C@H](Cc3c[nH]cn3)NC(=O)[C@@H]3CSCN3C2=O)C(=O)N2CSC[C@H]2C(=O)N[C@@H](Cc2c[nH]cn2)C(=O)N[C@H](Cc2ccccc2)C(=O)N[C@@H](Cc2c[nH]cn2)C(=O)N[C@H]1Cc1c[nH]c2ccccc12, also called c[c[Cys-THAZ-His-D-Phe-His-Trp-Cys]-THAZ-His-D-Phe-His-Trp]) [Chem. 91] | > 10 nM | 0.71 nM | 0.51 nM
7 | cyclo(C[Pip]H[dF]HWCAKKKW) (disulfide 1-7, also called c[c[Cys-PIP-His-D-Phe-His-Trp-Cys]-Ala-Lys-Lys-Lys-Trp]) [Chem. 83] | > 10 nM | 2.15 nM | 0.17 nM
8 | cyclo(CAH[dF]RWRCAH[dF]RWR) (disulfide 1-8; SMILES C[C@@H]1NC(=O)[C@@H]2CSSC[C@H](NC(=O)[C@H](CCCNC(=N)N)NC(=O)[C@H](Cc3c[nH]c4ccccc34)NC(=O)[C@H](CCCNC(=N)N)NC(=O)[C@@H](Cc3ccccc3)NC(=O)[C@H](Cc3c[nH]cn3)NC1=O)C(=O)N[C@@H](C)C(=O)N[C@@H](Cc1c[nH]cn1)C(=O)N[C@H](Cc1ccccc1)C(=O)N[C@@H](CCCNC(=N)N)C(=O)N[C@@H](Cc1c[nH]c3ccccc13)C(=O)N[C@@H](CCCNC(=N)N)C(=O)N2, also called c[c[Cys-Ala-His-D-Phe-Arg-Trp-Arg-Cys]-Ala-His-D-Phe-Arg-Trp-Arg]) [Chem. 69] | 6.9 nM | 1.52 nM | 4.65 nM
9 | cyclo(C[Hyp]H[dF]HWCAKKKW) (disulfide 1-7; SMILES C[C@@H]1NC(=O)[C@@H]2CSSC[C@H](NC(=O)[C@H](Cc3c[nH]c4ccccc34)NC(=O)[C@H](CCCCN)NC(=O)[C@H](CCCCN)NC(=O)[C@H](CCCCN)NC1=O)C(=O)N1C[C@H](O)C[C@H]1C(=O)N[C@@H](Cc1c[nH]cn1)C(=O)N[C@H](Cc1ccccc1)C(=O)N[C@@H](Cc1c[nH]cn1)C(=O)N[C@@H](Cc1c[nH]c3ccccc13)C(=O)N2, also called c[c[Cys-Hyp-His-D-Phe-His-Trp-Cys]-Ala-Lys-Lys-Lys-Trp]) [Chem. 70] | 75.7 nM | 0.38 nM | 0.07 nM
10 | cyclo(AAH[dF]RWAAH[dF]RW) (SMILES C[C@@H]1NC(=O)[C@H](C)NC(=O)[C@H](Cc2c[nH]c3ccccc23)NC(=O)[C@H](CCCNC(=N)N)NC(=O)[C@@H](Cc2ccccc2)NC(=O)[C@H](Cc2c[nH]cn2)NC(=O)[C@H](C)NC(=O)[C@H](C)NC(=O)[C@H](Cc2c[nH]c3ccccc23)NC(=O)[C@H](CCCNC(=N)N)NC(=O)[C@@H](Cc2ccccc2)NC(=O)[C@H](Cc2c[nH]cn2)NC1=O, also called c[Ala-Ala-His-D-Phe-Arg-Trp-Ala-Ala-His-D-Phe-Arg-Trp]) [Chem. 7] | 4.56 nM | 0.06 nM | 0.47 nM
11 | cyclo(CAH[dF]R[Phe(4-CN)]CAKKKW) (disulfide 1-7; SMILES C[C@@H]1NC(=O)[C@@H]2CSSC[C@H](NC(=O)[C@H](Cc3ccc(C#N)cc3)NC(=O)[C@H](CCCNC(=N)N)NC(=O)[C@@H](Cc3ccccc3)NC(=O)[C@H](Cc3c[nH]cn3)NC1=O)C(=O)N[C@@H](C)C(=O)N[C@@H](CCCCN)C(=O)N[C@@H](CCCCN)C(=O)N[C@@H](CCCCN)C(=O)N[C@@H](Cc1c[nH]c3ccccc13)C(=O)N2, also called c[c[Cys-Ala-His-D-Phe-Arg-4-CN-Phe-Cys]-Ala-Lys-Lys-Lys-Trp]) [Chem. 65] | 10.8 nM | 0.42 nM | 0.47 nM
12 | cyclo(CPH[dF][Cit]WCAKKKR) (disulfide 1-7; SMILES C[C@@H]1NC(=O)[C@@H]2CSSC[C@H](NC(=O)[C@H](CCCNC(=N)N)NC(=O)[C@H](CCCCN)NC(=O)[C@H](CCCCN)NC(=O)[C@H](CCCCN)NC1=O)C(=O)N1CCC[C@H]1C(=O)N[C@@H](Cc1c[nH]cn1)C(=O)N[C@H](Cc1ccccc1)C(=O)N[C@@H](CCCNC(N)=O)C(=O)N[C@@H](Cc1c[nH]c3ccccc13)C(=O)N2, Printed shorthand is identical to that of Chem. 99; the drawings may differ; also called c[c[Cys-Pro-His-D-Phe-Cit-Trp-Cys]-Ala-Lys-Lys-Lys-Arg]) [Chem. 72] | 5.86 nM | 0.03 nM | 0.03 nM
13 | cyclo(CAH[dF]R[Phe(3,4-(OMe)2)]CAKKKW) (disulfide 1-7; SMILES COc1ccc(C[C@@H]2NC(=O)[C@H](CCCNC(=N)N)NC(=O)[C@@H](Cc3ccccc3)NC(=O)[C@H](Cc3c[nH]cn3)NC(=O)[C@H](C)NC(=O)[C@@H]3CSSC[C@H](NC2=O)C(=O)N[C@@H](C)C(=O)N[C@@H](CCCCN)C(=O)N[C@@H](CCCCN)C(=O)N[C@@H](CCCCN)C(=O)N[C@@H](Cc2c[nH]c4ccccc24)C(=O)N3)cc1OC, also called c[c[Cys-Ala-His-D-Phe-Arg-3,4-DiMeo-Phe-Cys]-Ala-Lys-Lys-Lys-Trp]) [Chem. 67] | > 55 nM | 2.99 nM | 0.95 nM
14 | CXHFRWCXHFRW (Aib 2, 8; D-Phe 4, 10; disulphide Cys1-Cys7; head-to-tail amide Cys1-Trp12, also called c[c[Cys-Aib-His-D-Phe-Arg-Trp-Cys]-Aib-His-D-Phe-Arg-Trp]) [Chem. 9] | 4.02 nM | 0.02 nM | 0.06 nM
15 | cyclo(C[Thz]H[dF]HWCAKKKW) (disulfide 1-7; SMILES C[C@@H]1NC(=O)[C@@H]2CSSC[C@H](NC(=O)[C@H](Cc3c[nH]c4ccccc34)NC(=O)[C@H](CCCCN)NC(=O)[C@H](CCCCN)NC(=O)[C@H](CCCCN)NC1=O)C(=O)N1CSC[C@H]1C(=O)N[C@@H](Cc1c[nH]cn1)C(=O)N[C@H](Cc1ccccc1)C(=O)N[C@@H](Cc1c[nH]cn1)C(=O)N[C@@H](Cc1c[nH]c3ccccc13)C(=O)N2, also called c[c[Cys-THAZ-His-D-Phe-His-Trp-Cys]-Ala-Lys-Lys-Lys-Trp]) [Chem. 81] | 67 nM | 0.07 nM | 0.03 nM
